Experimental data reported in article PMC12358912.

What was measured:
[1] = target: NIPBL (human) (UniProt Q6KC79); assay: mass photometry; conditions: typically 150 nM protein + 150 nM DNA, then diluted (10-fold for NIPBL), phosphate buffer (HEPES for MC604 repeat), 50 mM NaCl for ATP …
[2] = target: NIPBL-MAU2 (human) (UniProt Q6KC79+Q9Y6X3); assay: mass photometry; conditions: typically 150 nM protein + 150 nM DNA, then diluted (10-fold for NIPBL), phosphate buffer (HEPES for MC604 repeat), 50 mM NaCl for ATP …
[3] = target: cohesin Trimer (SMC1/SMC3/SCC1);STAG1 (human;human) (UniProt Q14683+Q9UQE7+O60216+Q8WVM7); assay: mass photometry; conditions: typically 150 nM protein + 150 nM DNA, then diluted (10-fold for NIPBL), phosphate buffer (HEPES for MC604 repeat), 50 mM NaCl for ATP …
[4] = target: T1, STAG1 (human) (UniProt Q8WVM7); assay: mass photometry; conditions: typically 150 nM protein + 150 nM DNA, then diluted (10-fold for NIPBL), phosphate buffer (HEPES for MC604 repeat), 50 mM NaCl for ATP …
T1 sequence: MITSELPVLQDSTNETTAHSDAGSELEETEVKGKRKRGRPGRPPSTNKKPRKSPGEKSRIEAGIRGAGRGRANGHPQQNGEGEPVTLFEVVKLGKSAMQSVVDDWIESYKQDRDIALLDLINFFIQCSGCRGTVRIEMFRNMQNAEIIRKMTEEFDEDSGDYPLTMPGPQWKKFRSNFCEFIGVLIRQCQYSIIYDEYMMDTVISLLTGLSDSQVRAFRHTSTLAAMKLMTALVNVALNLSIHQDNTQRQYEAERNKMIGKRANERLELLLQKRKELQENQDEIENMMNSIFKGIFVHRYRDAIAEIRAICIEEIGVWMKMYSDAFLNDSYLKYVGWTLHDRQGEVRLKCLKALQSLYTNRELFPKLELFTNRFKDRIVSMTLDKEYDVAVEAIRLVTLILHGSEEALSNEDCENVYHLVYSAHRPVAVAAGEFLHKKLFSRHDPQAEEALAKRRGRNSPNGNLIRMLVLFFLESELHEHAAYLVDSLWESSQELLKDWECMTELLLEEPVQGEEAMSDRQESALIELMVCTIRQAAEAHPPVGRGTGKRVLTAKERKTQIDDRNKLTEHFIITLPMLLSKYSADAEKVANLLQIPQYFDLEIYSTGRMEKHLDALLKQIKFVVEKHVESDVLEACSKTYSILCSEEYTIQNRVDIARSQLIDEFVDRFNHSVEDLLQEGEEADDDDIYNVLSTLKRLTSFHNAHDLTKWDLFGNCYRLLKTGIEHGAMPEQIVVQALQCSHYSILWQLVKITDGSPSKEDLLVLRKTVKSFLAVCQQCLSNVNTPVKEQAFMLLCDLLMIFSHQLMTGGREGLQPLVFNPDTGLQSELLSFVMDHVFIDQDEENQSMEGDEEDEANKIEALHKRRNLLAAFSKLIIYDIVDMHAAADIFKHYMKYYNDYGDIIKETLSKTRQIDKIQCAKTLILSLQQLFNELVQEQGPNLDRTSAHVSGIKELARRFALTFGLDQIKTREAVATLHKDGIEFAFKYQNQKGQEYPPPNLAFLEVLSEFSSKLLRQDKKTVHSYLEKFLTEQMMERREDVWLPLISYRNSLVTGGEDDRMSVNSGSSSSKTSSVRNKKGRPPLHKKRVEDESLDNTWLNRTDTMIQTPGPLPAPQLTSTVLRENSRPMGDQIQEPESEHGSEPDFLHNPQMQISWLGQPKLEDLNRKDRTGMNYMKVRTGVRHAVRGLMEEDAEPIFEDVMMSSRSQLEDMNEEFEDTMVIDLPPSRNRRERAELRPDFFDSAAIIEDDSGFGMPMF

[5] = target: SMC1/SMC3/SCC1 cohesin Trimer (UniProt Q14683); assay: mass photometry; in solution; two components mixed and equilibrated: 150 nM cohesin Trimer sample with 150 nM NIPBL, or with 150 nM or 80 nM STAG1 (total protein concentrations); KD from individual mass distributions; ATP is said not to affect these 1:1 interactions

Chain of NIPBL-MAU2 (human) (Q6KC79 whole entry, chain 1 of 2): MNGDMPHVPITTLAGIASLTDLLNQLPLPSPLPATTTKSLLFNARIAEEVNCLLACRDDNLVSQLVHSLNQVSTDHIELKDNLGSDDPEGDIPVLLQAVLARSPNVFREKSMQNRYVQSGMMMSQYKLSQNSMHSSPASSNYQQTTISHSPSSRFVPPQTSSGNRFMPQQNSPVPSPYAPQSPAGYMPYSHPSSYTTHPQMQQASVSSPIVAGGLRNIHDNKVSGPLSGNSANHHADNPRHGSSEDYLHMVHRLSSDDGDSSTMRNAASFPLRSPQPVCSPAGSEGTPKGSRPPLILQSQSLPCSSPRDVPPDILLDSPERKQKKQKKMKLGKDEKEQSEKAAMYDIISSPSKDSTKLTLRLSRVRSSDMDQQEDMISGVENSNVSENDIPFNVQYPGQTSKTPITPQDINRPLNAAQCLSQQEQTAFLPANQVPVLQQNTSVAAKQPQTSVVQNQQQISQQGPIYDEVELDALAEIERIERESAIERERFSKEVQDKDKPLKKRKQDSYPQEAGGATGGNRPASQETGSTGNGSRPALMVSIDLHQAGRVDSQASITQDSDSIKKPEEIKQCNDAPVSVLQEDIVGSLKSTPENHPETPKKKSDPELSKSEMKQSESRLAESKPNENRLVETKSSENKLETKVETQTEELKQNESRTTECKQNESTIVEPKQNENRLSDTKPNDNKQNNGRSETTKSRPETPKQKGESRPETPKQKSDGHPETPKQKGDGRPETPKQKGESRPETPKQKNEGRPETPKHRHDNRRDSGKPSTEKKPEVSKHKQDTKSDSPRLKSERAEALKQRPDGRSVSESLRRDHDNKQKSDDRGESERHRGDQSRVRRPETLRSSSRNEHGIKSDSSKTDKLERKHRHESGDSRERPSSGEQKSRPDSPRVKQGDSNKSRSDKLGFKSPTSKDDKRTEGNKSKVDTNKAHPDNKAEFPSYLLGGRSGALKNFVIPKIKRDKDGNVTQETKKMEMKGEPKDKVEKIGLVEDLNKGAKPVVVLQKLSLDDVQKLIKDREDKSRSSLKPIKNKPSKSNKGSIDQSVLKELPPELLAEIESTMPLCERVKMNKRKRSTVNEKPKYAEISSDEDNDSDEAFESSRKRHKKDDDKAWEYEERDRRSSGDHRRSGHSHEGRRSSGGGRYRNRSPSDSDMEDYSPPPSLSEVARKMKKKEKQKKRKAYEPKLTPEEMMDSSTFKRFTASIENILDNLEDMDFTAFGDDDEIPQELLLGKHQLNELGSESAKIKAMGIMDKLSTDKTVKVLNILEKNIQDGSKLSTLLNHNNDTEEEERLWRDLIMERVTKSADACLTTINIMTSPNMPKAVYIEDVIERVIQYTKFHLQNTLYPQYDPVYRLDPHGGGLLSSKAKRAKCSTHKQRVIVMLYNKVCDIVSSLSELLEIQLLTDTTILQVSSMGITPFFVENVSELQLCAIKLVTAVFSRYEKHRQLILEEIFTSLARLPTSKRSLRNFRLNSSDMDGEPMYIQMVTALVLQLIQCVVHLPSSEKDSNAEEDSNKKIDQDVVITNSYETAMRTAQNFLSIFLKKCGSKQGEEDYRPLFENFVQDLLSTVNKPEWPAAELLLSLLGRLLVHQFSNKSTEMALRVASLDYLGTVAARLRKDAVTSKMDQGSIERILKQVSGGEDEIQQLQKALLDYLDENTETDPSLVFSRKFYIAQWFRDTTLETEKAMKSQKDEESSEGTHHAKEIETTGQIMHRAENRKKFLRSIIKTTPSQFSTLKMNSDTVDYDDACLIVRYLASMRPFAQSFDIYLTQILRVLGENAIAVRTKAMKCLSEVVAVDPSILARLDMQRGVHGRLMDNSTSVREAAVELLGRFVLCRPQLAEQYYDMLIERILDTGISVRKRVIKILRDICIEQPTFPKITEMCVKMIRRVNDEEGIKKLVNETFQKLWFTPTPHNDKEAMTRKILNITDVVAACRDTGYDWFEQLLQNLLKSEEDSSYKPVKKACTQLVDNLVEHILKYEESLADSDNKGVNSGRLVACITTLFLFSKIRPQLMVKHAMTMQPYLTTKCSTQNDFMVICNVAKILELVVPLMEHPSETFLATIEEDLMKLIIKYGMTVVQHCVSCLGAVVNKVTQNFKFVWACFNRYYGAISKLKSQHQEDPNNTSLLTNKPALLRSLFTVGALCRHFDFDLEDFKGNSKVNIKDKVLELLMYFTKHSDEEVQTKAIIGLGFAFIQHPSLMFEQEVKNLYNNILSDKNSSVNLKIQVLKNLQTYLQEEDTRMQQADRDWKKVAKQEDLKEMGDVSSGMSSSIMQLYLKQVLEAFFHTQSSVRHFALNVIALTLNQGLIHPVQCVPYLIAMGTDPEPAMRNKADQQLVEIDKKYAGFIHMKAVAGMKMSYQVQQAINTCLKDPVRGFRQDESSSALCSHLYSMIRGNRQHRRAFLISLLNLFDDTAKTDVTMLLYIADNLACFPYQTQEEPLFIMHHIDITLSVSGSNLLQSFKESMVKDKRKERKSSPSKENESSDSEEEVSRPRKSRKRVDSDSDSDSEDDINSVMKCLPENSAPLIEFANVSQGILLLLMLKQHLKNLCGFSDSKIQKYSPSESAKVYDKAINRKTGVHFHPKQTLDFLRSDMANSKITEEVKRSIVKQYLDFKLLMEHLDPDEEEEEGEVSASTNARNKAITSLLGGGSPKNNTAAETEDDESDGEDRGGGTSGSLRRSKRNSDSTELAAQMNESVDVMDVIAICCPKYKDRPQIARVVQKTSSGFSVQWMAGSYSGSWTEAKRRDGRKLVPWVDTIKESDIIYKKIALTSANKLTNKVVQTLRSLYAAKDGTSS
Chain of NIPBL-MAU2 (human) (Q9Y6X3 whole entry, chain 2 of 2): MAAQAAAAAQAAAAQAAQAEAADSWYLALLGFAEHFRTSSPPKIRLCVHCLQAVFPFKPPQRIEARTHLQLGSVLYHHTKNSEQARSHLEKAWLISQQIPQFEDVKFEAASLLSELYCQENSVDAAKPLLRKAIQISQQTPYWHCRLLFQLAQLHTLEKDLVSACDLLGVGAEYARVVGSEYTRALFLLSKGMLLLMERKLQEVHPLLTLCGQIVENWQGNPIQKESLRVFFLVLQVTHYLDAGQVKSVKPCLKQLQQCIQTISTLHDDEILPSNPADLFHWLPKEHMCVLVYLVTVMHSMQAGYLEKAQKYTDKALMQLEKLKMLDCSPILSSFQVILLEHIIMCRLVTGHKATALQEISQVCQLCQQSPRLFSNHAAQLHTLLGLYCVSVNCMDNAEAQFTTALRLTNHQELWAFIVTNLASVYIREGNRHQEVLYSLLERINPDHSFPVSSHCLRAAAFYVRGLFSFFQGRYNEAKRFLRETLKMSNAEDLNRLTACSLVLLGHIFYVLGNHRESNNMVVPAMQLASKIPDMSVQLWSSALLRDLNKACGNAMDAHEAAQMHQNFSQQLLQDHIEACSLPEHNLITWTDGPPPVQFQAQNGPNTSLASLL
Chain of NIPBL (human) (Q6KC79 whole entry): as the sequence (Q6KC79 whole entry, chain 1 of 2) above

| Kd [5] [nM] | Substance | Kd [1] [nM] | Kd [2] [nM] | Kd [3] [nM] | Kd [4] [nM] |
| --- | --- | --- | --- | --- | --- |
| – | CATATGTGCAGTCCCCCCATAAAAAAACCCGCCGAAGCGGGTTTTTACGTTATTTGCGGATTTTAATTAACTAGTTCTAGAGCTCACGTGCAGCTGTCGACGGTACCTGCAGGCCGGCCAGTACTGGGCCCCAACAGATAAAACGAAAGGCCCAGTCTTTCGACTGAGCCTTTCGTTTTATTGGGCCCCCTTGGTCAAATTGGGTATACCCATTTGGGCCTGGTCTGGCCGGCATGGCGCATTACAGCGGTACGCAATTTAAATGCGCCTAGCGCATTTTCCCGACCTTAATGCGCCTCGCG (double strand) [MC302 supercoiled minicircle] | < 10 | 12.2 | 169 | 1350 |
| 20 | NIPBL, Q6KC79 1-2804 | – | – | – | – |
